Data: publication PMC5118791

Key:
[1] = biological target: recombinant Factor VIIa (rFVIIa); experiment: BLI; Octet Red, Ni-NTA biosensors, 37 °C, 1000 rpm; association 180 sec, dissociation 10 min; 1:1 model, global fit; the legend of Figure 4b says rFVIIa was immobilised
[2] = biological target: recombinant Factor VIIa (rFVIIa)

Chain of recombinant Factor VIIa (rFVIIa) (P08709 whole entry): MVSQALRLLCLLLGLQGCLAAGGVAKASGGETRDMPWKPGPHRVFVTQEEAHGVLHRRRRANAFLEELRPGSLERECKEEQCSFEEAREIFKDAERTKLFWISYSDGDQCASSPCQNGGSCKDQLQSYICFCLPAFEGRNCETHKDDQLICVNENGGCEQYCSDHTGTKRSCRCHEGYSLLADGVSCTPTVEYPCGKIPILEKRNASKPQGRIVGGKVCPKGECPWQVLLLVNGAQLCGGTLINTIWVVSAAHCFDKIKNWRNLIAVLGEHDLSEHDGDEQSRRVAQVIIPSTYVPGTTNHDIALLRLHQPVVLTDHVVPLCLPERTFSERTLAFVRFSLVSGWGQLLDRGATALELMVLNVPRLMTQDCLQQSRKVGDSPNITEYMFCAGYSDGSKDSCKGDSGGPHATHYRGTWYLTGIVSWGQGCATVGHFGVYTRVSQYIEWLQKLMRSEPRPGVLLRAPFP

Kd [1]: 6.2 nM
prothrombin time (PT) in citrated human plasma, maximal fold prolongation over normal clotting time [2]: 3 fold
B1: E-76 peptide (peptide)
peptide: ALCDDPRVDRWYCQFVEG
